Measurements taken from the supplement of paper PMC9170038.

Test system: MS2 coat protein
Experiment: apparent KD of MS2 coat protein; designed switch direction (-1 OFF switch, 1 ON switch): -1; higher = weaker reporter binding
Summary of the method: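 On Illumina chips, designed RNA switches with common flanks were made by stalled E. coli RNA polymerase. Titrations with SNAP-549-labelled MS2 coat protein, doubling from 0.7 or 1.5 nM to 3 µM, were done with no input, with 200 uM small-molecule ligand, or with an oligonucleotide input. Apparent KD is the median per design over clusters, from curve fits of normalised cluster fluorescence.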

[1] = Eterna round: R95, input ligand: FMN 200 uM
[2] = Eterna round: R95, input ligand: microRNA oligo, concentration not stated
[3] = Eterna round: R95, input ligand: none
[4] = input ligand: microRNA oligo, concentration not stated

Sequence	apparent KD of MS2 coat protein (input ligand: FMN 200 uM)	apparent KD of MS2 coat protein (input ligand: none)	apparent KD of MS2 coat protein [2]	also measured
CUGAUGUGAGGAUAUCUAAGGCGACCAUGAGACAUGGGCCAAGAGAAGGCACAUGAGGAUCACCCAUGUACCGA [Anertees] (Eterna round: R97, puzzle: Exclusion 4)	0.0838 µM	0.0222 µM	–	–
CUGGUCCGAGGAUAUAUGAUGUGAAACAUGAGGAUCACCCAUGUAAUAUUAUGGAGGUAAAUAGAAGGCGGACUAG [Mat - Exclusion 5 - JL mod - D35] (puzzle: Exclusion 5)	–	–	0.0552 µM	apparent KD of MS2 coat protein [1]: 0.0453 µM; apparent KD of MS2 coat protein [3]: 0.06 µM
CUGGUCCGAGGAUAUAUUAAGUGAUACAUGAGGAUCACCCAUGUAAUUUAAUGGAAAUAAAUAGAAGGCGGACUAG [Mat - Exclusion 5 - JL mod - D51] (puzzle: Exclusion 5)	–	–	0.0653 µM	apparent KD of MS2 coat protein [1]: 0.03 µM; apparent KD of MS2 coat protein [3]: 0.0625 µM
CUGGUCCGAGGAUAUAUUAUGUGAUACAUGAGGAUCACCCAUGUUAUAUAAUGGAUGUAAAUAGAAGGCGGACUAG [JL-ex5-3.16] (puzzle: Exclusion 5)	–	–	0.0432 µM	apparent KD of MS2 coat protein [1]: 0.0603 µM; apparent KD of MS2 coat protein [3]: 0.044 µM
CUGGUGCGCGGAGGAUAUCGGAAAGGAAGUGUACGAGAAGGUCGUUCCACCAAACAUGAGGAUCACCCAUGUAGGAGUGACCUC [PowerStrip EXNG 1.7] (Eterna round: R96, puzzle: Exclusion NG 1)	0.127 µM	0.0629 µM	–	apparent KD of MS2 coat protein [4]: 0.0456 µM
CUGUUACAUGAGGAUCACCCAUGUGAGGAUAUGGUUCGGUACUGUCCUGUCGCGUACUCCAGAAGGCACGUGUU [1st #36] (Eterna round: R97, puzzle: Exclusion 1)	0.0465 µM	0.0365 µM	–	–
CUUAAGUUAGGAUAUGCGCUACGGAAUCGUGGUUAUAGACAGCAGAAGGAACUUGAGGAUCACCCAAGUAAAUA [Inatsoce] (Eterna round: R97, puzzle: Exclusion 4)	0.0892 µM	0.108 µM	–	–
CUUAGCGUAGGAUAUUAGUACAUGAACAUGAGGAUCACCCAUGUGAGGUGGGUCUUAGAUUAAGAAGGGCGAAGAA [EX5 #32] (Eterna round: R97, puzzle: Exclusion 5)	0.221 µM	0.249 µM	–	–
CUUAGGGCGGAGGAUAUGCCGUGGGCGAAUACAGUAGAAGGCCGCACUUGAGGAUCACCCAAGUAUGGUCAAAC [Inusisbeor] (Eterna round: R97, puzzle: Exclusion 6)	0.0154 µM	0.0131 µM	–	–
CUUAUGUCAGGAUAUGCCUGGCCGUGAGGCCAAAUUGAAUAGCAGAAGGGACAUGAGGAUCACCCAUGUCCGGG [jl-ex4-4.64 ViennaUCT mod] (Eterna round: R97, puzzle: Exclusion 4)	0.115 µM	0.13 µM	–	–
CUUCAAUCACCAGAGCUCACACUUAUACCUGCUCUGGUGACAUGAGGAUCACCCAUGUUUUUUGCCCGUCUUAUCUU [Sensor v3, turn-off variant 2 (MOD of Leso v.3)] (puzzle: Sensor v3, turn-off variant 2)	–	–	0.033 µM	apparent KD of MS2 coat protein [1]: 0.0866 µM; apparent KD of MS2 coat protein [3]: 0.0974 µM
CUUCGACAUGAGGAUCACCCAUGUCAGGAUAUUGUGUAUCGGGUUUUUUACGGAAAGGCAAGAAGGGAUGUGUG [LRO-Excl1-07] (puzzle: Exclusion 1)	–	–	0.0254 µM	–
CUUCGUAUAGAGGAUAUAGGAUACUGCGGUGUCCUAGAAGGCUGUACAUGAGGAUCACCCAUGUACUUCAGAUC [Exclusion 6 - B - 14:c] (puzzle: Exclusion 6)	–	–	0.012 µM	–
CUUCGUAUAGAGGAUAUAGGAUACUUCGGUGUCCUAGAAGGCUGUACAUGAGGAUCACCCAUGUACUUCAGAUC [Exclusion 6 - B - 14:b] (puzzle: Exclusion 6)	–	–	0.0119 µM	–
CUUCGUGUCAAGGAUAUACAGCAACUAUCCGGAGUAGAAGGUGGCACUUGAGGAUCACCCAAGUGCGUGGGUGU [Uszaqubi] (Eterna round: R97, puzzle: Exclusion 6)	0.0335 µM	0.0257 µM	–	–
CUUCGUUGUAAGGAUAUCCAGACUCUUCCUGUCGGAGAAGGUACAACAUGAGGAUCACCCAUGUUGCUACAUGG [Zaaqu] (puzzle: Exclusion 6)	–	–	0.0216 µM	–
CUUGCGGAUAAAGGAUAUUGCGGUGACCGGCUCGGCGUACCGAGCCUACAUGAGGAUCACCCAUGUAAGAAGGUUGUCGCUGGU [JL ViennaUCT Qudice mod 3] (Eterna round: R96, puzzle: Exclusion NG 2)	0.0129 µM	0.0141 µM	–	apparent KD of MS2 coat protein [4]: 0.00845 µM
CUUGUUUAUGUAGGAUAUGCCUGGCGUGCCUUUGCAGAAGGACAUGAGGAUCACCCAUGUAUUGCGGUCUGCGUUCAGAUCGCU [salish99_ExNG1_r4_044] (Eterna round: R96, puzzle: Exclusion NG 1)	0.0411 µM	0.0366 µM	–	apparent KD of MS2 coat protein [4]: 0.0288 µM

Sequence	apparent KD of MS2 coat protein (input ligand: FMN 200 uM)	apparent KD of MS2 coat protein (input ligand: none)	apparent KD of MS2 coat protein [2]	also measured
CUUUAACAAGCGAGAUCCAACAUGAGGAUCACCCAUGUGCAUCCACGAUUAGUGGGUGCGAAAGCUCGUCUUAUAUG [v1] (Eterna round: R97, puzzle: Sensor, turn-off variant 1)	0.0209 µM	0.0216 µM	–	–
CUUUGGUCAGGAUAUGGUGGGCUGGUCGCGCGGCCGGGUGGCCAGAAGGGACAUGAGGAUCACCCAUGUACGGC [excls4-X] (Eterna round: R96, puzzle: Exclusion 4)	0.106 µM	0.0843 µM	–	apparent KD of MS2 coat protein [4]: 0.053 µM
CUUUUGUGAGGAUAUCAGUAGUAAAAAAAUAAAAUUACUAUUGAGAAGGCACAUGAGGAUCACCCAUGUUCCUC [salish99_ex4_r3_029] (puzzle: Exclusion 4)	–	–	0.0364 µM	–
CUUUUGUGAGGAUAUCAGUAGUAAAAAUAUAAAAUUACUACUGAGAAGGCACAUGAGGAUCACCCAUGUUCCUC [salish99_ex4_r3_020] (puzzle: Exclusion 4)	–	–	0.0372 µM	–
CUUUUGUGAGGAUAUCAGUAGUAAAAGAAUAAAAUUACUACUGAGAAGGCACAUGAGGAUCACCCAUGUUCCUC [Mat - Exclusion 4 - Mod of Salish - D61] (puzzle: Exclusion 4)	–	–	0.0367 µM	–
CUUUUGUGAGGAUAUUAGUAGUAAAAAAAUAAAAUUACUACUGAGAAGGCACAUGAGGAUCACCCAUGUUCUUC [salish99_ex4_r3_038] (puzzle: Exclusion 4)	–	–	0.0175 µM	–
CUUUUGUGAGGAUAUUAGUAGUAAAUAAAUUAAAUUACUACUGAGAAGGCACAUGAGGAUCACCCAUGUUCCUC [salish99_ex4_r3_057] (Eterna round: R96, puzzle: Exclusion 4)	0.428 µM	0.0366 µM	–	apparent KD of MS2 coat protein [4]: 0.0328 µM
CUUUUGUGAGGAUAUUAGUAGUAAAUAAAUUAAAUUACUACUGAGAAGGCACAUGAGGAUCACCCAUGUUCCUC [salish99_ex4_r3_057] (puzzle: Exclusion 4)	–	–	0.032 µM	–
CUUUUGUGAGGAUAUUAGUAUUAAAUAAAUAAAAUUACUACUGAGAAGGCACAUGAGGAUCACCCAUGUUCCUC [salish99_ex4_r3_050] (puzzle: Exclusion 4)	–	–	0.0336 µM	–
GAAAACCUAGGAUAUACAUGAGGAUCACCCAUGUGAAAACCUCUUAAAACUUAACAAUGUAGAAGGAGGAAAAC [Azaqure] (puzzle: Exclusion 3)	–	–	0.0432 µM	apparent KD of MS2 coat protein [1]: 0.0399 µM; apparent KD of MS2 coat protein [3]: 0.0383 µM
GAAAACGCAGAGGAUAUUUCAGAUCAAAGCUGCAAAGAAGGCUGCACAUGAGGAUCACCCAUGUGGUCUUUAAA [Mod of Quesina - Jieux - Exclusion 6] (Eterna round: R97, puzzle: Exclusion 6)	0.286 µM	0.0207 µM	–	–
GAAAACGCAGAGGAUAUUUCAGAUCAAAGCUGCAAAGAAGGCUGCACAUGAGGAUCACCCAUGUGGUCUUUAAA [Quesina] (Eterna round: R96, puzzle: Exclusion 6)	–	–	–	apparent KD of MS2 coat protein [4]: 0.016 µM
GAAAACGCAGAGGAUAUUUCAGAUCAAAGCUGCAAAGAAGGCUGCACAUGAGGAUCACCCAUGUGGUCUUUAAA [Quesina] (puzzle: Exclusion 6)	–	–	0.0178 µM	apparent KD of MS2 coat protein [1]: 0.167 µM; apparent KD of MS2 coat protein [3]: 0.0164 µM
GAAAAGGUAGGAUAUACGAAAAAAAAGGGUAGAAAUAAAACACAUGAGGAUCACCCAUGUAGAAGGACCAAAAG [salish99_ex2_r3_076] (puzzle: Exclusion 2)	–	–	0.0209 µM	apparent KD of MS2 coat protein [1]: 0.0745 µM; apparent KD of MS2 coat protein [3]: 0.0155 µM
GAAAAGGUAGGAUAUACGAAAAAAAAUGGUAGAAAAAAAACACAUGAGGAUCACCCAUGUAGAAGGACCAAAAG [salish99_ex2_r3_071] (puzzle: Exclusion 2)	–	–	0.0246 µM	apparent KD of MS2 coat protein [1]: 0.023 µM; apparent KD of MS2 coat protein [3]: 0.0179 µM
GAAAAUGUGGAGGAUAUCGACUUCGAAAGAAGUCGAGAAGGCCACACAUGAGGAUCACCCAUGUGAUGCCUAUA [Omei Ex6 H8] (Eterna round: R97, puzzle: Exclusion 6)	0.774 µM	0.23 µM	–	–
GAAACGCGAGGAUAUACAGACGAGUCCAUUACGUGUCUCGGACUUGAGGAUCACCCAAGUAGAAGGCGUCUCAG [salish99_ex2_r4_631] (Eterna round: R97, puzzle: Exclusion 2)	0.0248 µM	0.0276 µM	–	–
GAAAUACAUGAGGAUCACCCAUGUAAGGAUAUGCUAGCGGUCGGCUGACUGACUGCUAGCAGAAGGUACAUGAU [Mat - Mod of JL D81] (puzzle: Exclusion 1)	–	–	0.0675 µM	–
